Test results taken from paper PMC5774825.

What was measured:
[1] = biological target: Ab-WbjB (UDP-N-acetylglucosamine 4,6-dehydratase, WbjB) of Acinetobacter baumannii D1279779 (Acinetobacter baumannii strain D1279779); experiment: crystal structure; Se-Met Ab-WbjB, space group P212121, six chains in the asymmetric unit, NADP+ bound to each chain, 2.65 Å
[2] = biological target: Ab-WbjB (UDP-N-acetylglucosamine 4,6-dehydratase, WbjB) of Acinetobacter baumannii D1279779 (Acinetobacter baumannii strain D1279779); experiment: SEC; Superdex 200 10/300 GL, Buffer A (50 mM HEPES pH 7.5, 200 mM NaCl, 5% v/v glycerol), 0.5 mL/min; hexamer
[3] = biological target: Ab-WbjB (UDP-N-acetylglucosamine 4,6-dehydratase, WbjB) of Acinetobacter baumannii D1279779 (Acinetobacter baumannii strain D1279779); experiment: SEC; some laboratory samples of Ab-WbjB, presumed by the authors to hold less NADP+; dimer form in solution (example in S1 Fig)

Work on “Ab-WbjB (UDP-N-acetylglucosamine 4,6-dehydratase, WbjB) of Acinetobacter baumannii D1279779 (enzyme)” yielded a stoichiometry N [1] of 6, a stoichiometry N [2] of 6 and a stoichiometry N [3] of 2.
